For one substance, percent of ribosome particles in 100S dimers and stoichiometry N results are on record in paper PMC10522483.

By stoichiometry N is commonly meant a count of units in the complex or per binding partner.

The target of this assay is S. lophii 70S ribosome (Spraguea lophii (endogenous in spores)). Description: cryo-EM structure; electron cryo-tomography and subtomogram averaging of ribosomes in situ in polar tubes of spores germinated on the grid; dimer map 14.3 Å (C2 symmetry, 1,191 particles), half-dimer map 10.8 Å; single-particle atomic model fitted into the maps.

In turn, S. lophii 70S ribosome (complex) yielded a percent of ribosome particles in 100S dimers of 80% and a stoichiometry N of 2.
